Our source for the binding result, Kd and Response (RU) values is patent publication US20140227283A1 (INSERM INSTITUT NATIONAL DE LA SANTE ET DE LA RECHERCHE …, published 2014).

The target of test [1] is T1, human Axl on the surface of cells (human, UniProt P30530 26-894).
T1 construct: whole, on cells; Endogenous Axl of the cell lines; also called cell surface Axl; Axl receptor
T1 sequence (looked up): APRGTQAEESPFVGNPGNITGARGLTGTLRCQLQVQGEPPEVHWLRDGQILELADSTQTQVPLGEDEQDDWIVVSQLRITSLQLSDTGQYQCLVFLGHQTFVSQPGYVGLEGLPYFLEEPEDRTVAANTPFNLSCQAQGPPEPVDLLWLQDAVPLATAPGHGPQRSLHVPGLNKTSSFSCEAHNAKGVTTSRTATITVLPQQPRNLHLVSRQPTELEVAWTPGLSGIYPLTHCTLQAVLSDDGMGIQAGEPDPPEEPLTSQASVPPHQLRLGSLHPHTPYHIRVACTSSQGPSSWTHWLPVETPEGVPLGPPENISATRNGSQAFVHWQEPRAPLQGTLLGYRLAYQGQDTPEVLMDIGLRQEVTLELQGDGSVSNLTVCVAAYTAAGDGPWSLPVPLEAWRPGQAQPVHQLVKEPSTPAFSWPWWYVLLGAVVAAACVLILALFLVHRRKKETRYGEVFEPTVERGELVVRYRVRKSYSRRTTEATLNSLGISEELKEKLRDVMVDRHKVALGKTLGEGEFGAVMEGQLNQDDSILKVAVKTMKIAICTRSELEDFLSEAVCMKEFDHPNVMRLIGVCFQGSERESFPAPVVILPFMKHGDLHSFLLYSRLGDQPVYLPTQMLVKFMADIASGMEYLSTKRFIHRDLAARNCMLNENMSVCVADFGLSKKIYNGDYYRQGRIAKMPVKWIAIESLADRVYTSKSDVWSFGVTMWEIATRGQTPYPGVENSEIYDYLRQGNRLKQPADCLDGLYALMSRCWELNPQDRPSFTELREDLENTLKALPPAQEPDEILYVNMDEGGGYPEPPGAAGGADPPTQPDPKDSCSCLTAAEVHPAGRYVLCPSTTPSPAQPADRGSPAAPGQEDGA
Briefly: flow cytometry on A549 cells. The text has this:
FIG. 2: Flow cytometry analysis of cell surface Axl in A549.

Test [2] concerns the target human Axl extracellular domain fused to human Fc domain (hAxl-hFc protein; R&D system) (human) (UniProt P30530). Briefly: SPR (BIAcore-3000), hAxl-hFc amine-coupled on a CM5 chip, mAb injected at 2 to 133 nM, 25° C., one-to-one Langmuir model. In general terms: SPR reads the build-up and loss of mass on a sensor chip optically.
Test [3] has the same target. Briefly: SPR (BIAcore), hAxl-hFc on a CM5 chip; 3E3-E8 (666 nM) injected first, before Gas6.
Test [4] has the same target. The experiment in a line: SPR (BIAcore), hAxl-hFc on a CM5 chip; 3E3-E8 (666 nM) injected second, after Gas6 (625 nM), without removing Gas6.
Another test addresses T2, mouse Axl-Fc (mouse, UniProt Q00993 20-443, limits assumed).
T2 construct: also called m-Axl; not shown: Fc part
T2 sequence (looked up): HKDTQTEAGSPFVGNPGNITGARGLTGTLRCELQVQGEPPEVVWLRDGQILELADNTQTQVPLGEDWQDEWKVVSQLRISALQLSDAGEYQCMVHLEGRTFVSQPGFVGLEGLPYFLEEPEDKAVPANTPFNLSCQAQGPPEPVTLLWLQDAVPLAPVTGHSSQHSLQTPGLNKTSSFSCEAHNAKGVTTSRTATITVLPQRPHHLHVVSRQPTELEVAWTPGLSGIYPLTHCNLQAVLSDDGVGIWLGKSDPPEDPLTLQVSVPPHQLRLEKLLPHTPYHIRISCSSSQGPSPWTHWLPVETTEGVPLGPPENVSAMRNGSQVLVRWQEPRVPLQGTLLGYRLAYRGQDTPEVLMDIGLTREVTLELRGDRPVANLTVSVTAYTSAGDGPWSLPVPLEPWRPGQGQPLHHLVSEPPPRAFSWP
The experiment in a line: ELISA on coated Fc fusion proteins. The procedure:
(§1) FIG. 1: ELISA experiments to investigate the affinity and the specificity of mouse monoclonal antibodies against hAxl. […] After washing, HRP-conjugated anti-mouse IgG was added.
A general note: ELISA stands for enzyme-linked immunosorbent assay.

Another test has as its target T3, human Mer-Fc (human, UniProt Q12866 26-499, limits assumed).
T3 construct: also called h-Mer; not shown: Fc part
T3 sequence (looked up): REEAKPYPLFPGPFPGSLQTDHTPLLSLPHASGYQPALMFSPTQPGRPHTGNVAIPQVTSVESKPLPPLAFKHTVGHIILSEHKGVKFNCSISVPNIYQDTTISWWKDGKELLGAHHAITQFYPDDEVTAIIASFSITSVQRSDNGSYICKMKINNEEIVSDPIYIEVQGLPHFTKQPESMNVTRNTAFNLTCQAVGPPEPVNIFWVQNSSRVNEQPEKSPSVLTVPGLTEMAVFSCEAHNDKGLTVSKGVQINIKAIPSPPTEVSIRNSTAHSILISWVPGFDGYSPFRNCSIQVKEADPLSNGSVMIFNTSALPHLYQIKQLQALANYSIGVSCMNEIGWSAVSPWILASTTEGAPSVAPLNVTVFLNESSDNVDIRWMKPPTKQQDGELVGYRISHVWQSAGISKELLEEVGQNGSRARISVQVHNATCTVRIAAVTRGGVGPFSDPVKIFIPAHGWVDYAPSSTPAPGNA
The experiment in a line: ELISA on coated Fc fusion proteins. The procedure:
as §1

In another test the target is T4, Tyro-3-Fc (h-Tyro-3) (human, UniProt Q06418 41-428, limits assumed).
T4 construct: also called human Tyro-3-Fc; not shown: Fc part
T4 sequence (looked up): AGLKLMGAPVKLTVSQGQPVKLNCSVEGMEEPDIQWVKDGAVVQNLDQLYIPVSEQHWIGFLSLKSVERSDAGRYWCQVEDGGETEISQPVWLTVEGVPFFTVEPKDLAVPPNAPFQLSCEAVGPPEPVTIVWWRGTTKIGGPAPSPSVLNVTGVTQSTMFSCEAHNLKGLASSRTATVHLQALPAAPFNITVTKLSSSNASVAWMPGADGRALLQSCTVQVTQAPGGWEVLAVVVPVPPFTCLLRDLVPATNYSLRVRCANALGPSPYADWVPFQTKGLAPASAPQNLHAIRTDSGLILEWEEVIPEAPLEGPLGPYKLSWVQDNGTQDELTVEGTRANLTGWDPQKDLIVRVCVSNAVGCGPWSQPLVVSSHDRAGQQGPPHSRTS
The experiment in a line: ELISA on coated Fc fusion proteins. The procedure:
as §1

B1: murine anti-Axl monoclonal antibody 3E3E8 (antibody, V domains shown)
VH: QVQLKESGPGLVAPSQSLSITCSVSGFSLTNYAVHWVRQPPGKGLEWLGVIWAGGSTNYNSALMSRLRISKDNSKSQVFFKMNSLQTDDTAMYYCARYYGSSLYPMDYWGQGTSVTVSS
VL: DIVMTQAAPSVPVTPGESVSISCRSSKSLLHSNGNTYLYWFLQRPGQSPQLLIYRMSNLASGVPDRFSGSGSGTVFTLRISGVEAEDVGVYYCMQHLEYPWTFGGGTELEIK
notes: also called mAb 3E3-E8; mAb 3E3E8
With B1, the binding result in test [1] is reported as “binds”; in the test with mouse Axl-Fc, “no binding”; with human Mer-Fc it was “no binding”; with Tyro-3-Fc (h-Tyro-3), “no binding”. In test [2], this molecule gave a Kd of 1.6 nM. Moreover, the Response (RU) in test [3] stood at 2500 RU; in test [4], 2420 RU.

What is called Kd is the constant that tells how readily two partners part at equilibrium.
